Common to all, as to test: cell-based or functional assay
For experiment [1], the target named is receptor binding domain (RBD) in the SARS-CoV-2 UK variant (B.1.1.7) (SARS-CoV-2 UK variant (B.1.1.7)), P0DTC2.
The target of experiment [2] is receptor binding domain (RBD) in wild-type SARS-COV-2 (SARS-CoV-2 (wild-type)), P0DTC2.
Experiment [3] addresses receptor binding domain (RBD) in the SARS-CoV-2 Brazilian variant (P.1) (SARS-CoV-2 Brazilian variant (P.1)), P0DTC2.

Take DKLWILQKIYEIMVRLDEEGHGEASLMVSDLIYEFMKRD (modifications not checked) [Ce172]: in experiment [1], the IC50 value, plaque reduction assay using the SARS-COV-2 UK variant (B.1.1.7) was 0.0022 nM.

Molecule DKEWILYKIYEIMVRLDEEGHGEASLMVSDLIYEFMKRD (modifications not checked) [Ce149] had an IC50 value, plaque reduction assay using the SARS-COV-2 UK variant (B.1.1.7) in experiment [1] of 0.0021 nM.

In turn, DKEWILQKIYEIMRRLDEEGHGEASLRVSDLIYEFMKRD (modifications not checked) [Ce59] registered an IC50 value, plaque reduction assay using the SARS-COV-2 UK variant (B.1.1.7) in experiment [1] of 0.2 nM.

As to DKEWILQKIYEIMRLLDELGHAEASMRVSDLIYEFMKKD (modifications not checked) [Ce1], the IC50 value, plaque reduction assay using wild-type SARS-COV-2 in experiment [2] was 1.5 nM.

For DKEWILQKIYEIMRRLDEEGHGEASLRVSDLIYEFMKKD (modifications not checked) [Ce41], the IC50 value, plaque reduction assay using the SARS-COV-2 UK variant (B.1.1.7) in experiment [1] worked out at 0.68 nM.

In experiment [1], DKEWILQKIYEIMRRLDEEGHAEASMRVSDLIYEFMKKD (modifications not checked) [Ce9] registered an IC50 value, plaque reduction assay using the SARS-COV-2 UK variant (B.1.1.7) of 13 nM. The same molecule yielded an IC50 value, plaque reduction assay using the SARS-COV-2 Brazilian variant (P.1) in experiment [3] of 1200 nM. Moreover, the IC50 value, plaque reduction assay using wild-type SARS-COV-2 in experiment [2] worked out at 0.4 nM.

Values taken from patent US20240309059A1, “PEPTIDE HAVING ANTI-VIRAL ACTIVITY, ANTI-VIRAL AGENT COMPRISING SAID PEPTIDE, AND METHOD FOR PRODUCING SAID ANTI-VIRAL AGENT” (National University Corporation Tokyo Medical and Dental …, priority 2021, published 2024).
